# Test results as given in PMC3282893.
# pKd: −log10 of the molar value.
# Target: human IgG1 (solid phase in surface plasmon resonance) (human)
# Assay: SPR
substance,measurement,value
"soluble recombinant FcγRIIa-HR (high-responder, arginine R134 allele of FcγRIIa), glycosylated (from UniProt P12318 37-206) (receptor)",pKd,3.30
